B1: Regulator of G-protein signaling 12 (Mus musculus), Q8CGE9 (parent)
chain: MYRAGEPGKRQPGPAPPRVRSVEVARGRAGYGFTLSGQAPCVLSCVMRGSPADFVGLRAGDQILAINEINVKKASHEDVVKLIGKCSGVLHMVIAEGTSHVESCSSDEEGGLYEGKGWLRPKLDSKALGINRAERVVEEVQSGGIFNMIFESSSLCASGPEPLKLKQRSLSESAALRLDAGQAGLCAPHPSMLSKEDISKVINDDSVFTVGLDSHDDFGLDASILNVAMVVGYLGSIELPSTSSNLEHDSLQAIRGCMRRLRAEQKIHSLVTMKVMHDCVQLVTDRAGVVAEYPAEKLAFSAVCPDDRRFFGLVTMQTNDDGGLAQEDEGALRTSCHVFMVDPDLFHHKIHQGIARRFGFACTADPDTSGCLEFPASSLPVLQFISVLYRDMGELIEGVRARAFLDGDADAHQNNSTSSNSDSGIGNFNQEEKSNRVLVVDLGGGSSRHGQGSSPGWESGGGRGSQPWSAPWNGAFCHDSEAGSPLETSPNTDRFWDLTKHSGPVSHMEVPPATLRSSIPPSKRGAAGSSCGFNQRWLPVHVLQEWQCGHASDQESYTDSTDGWSSVNCGTLPPPMSKIPADRYRVEGSFAQAPLSTQKRDWSRKAFGMQNLFGPHRNVRKTKEDKKSSKLGRGVALAQTSQRTSARRSFGRSRRFSITRSLDDLESATVSDGELTGADLKDCISNNSLSSNASLPSVQSCRRLRERRVASWAVSFERLLQDPVGVRYFSDFLRKEFSEENILFWQACECFSHVPAHDKKELSYRAREIFSKFLCSKATTPVNIDSQAQLADDILNAPHPDMFKEQQLQIFNLMKFDSYTRFLKSQLYQECVLAEVEGRTLPDSQQVPSSPASKHSISSDHSNVSTPKKLSGKSKSGRSLNEDVGEEDSEKKRRGAFFSWSRSRSTGRSQKKKDHGDHAHDAPHANGGLCRRESQGSVSSAGSLDLSEACRTSALEKDKAAKHCCVHLPDGTSCVVAVKSGFSIKEILSGLCERHGINGAAVDLFLVGGDKPLVLHQDSSILATRDLRLEKRTLFRLDLVPINRSVGLKAKPTKPVTEVLRPVVAKYGLDLGSLLVRLSGEKEPLDLGAPISSLDGQRVILEERDPSRGKVSTDKQKGAPVKQNSAVNSSPRNHLAMGEERTLGKSNSIKIRGENGKSARDPRLSKREESIAKIGKKKYQKINLDEAEEFFELISKAQSNRADDQRGLLRKEDLVLPEFLRLPAGSSELALSSPPPVKGYSKRAVTGHGQEGAAQTEESYSDSPATSPASAQSPCSAYSPGSAHSPGSAHSTPGPPGTTQPGEKPTKPSCVSMVQEGTTQAWRRLSPEMEAGGIQTVEDEQVADLTLMGEGDISSPNSTLLPPPPTPQDTPGPPRPGTSRF

Variants of B1 are the subject of one experiment. The settings on record: with rash_rat Hras.
H995L: the “effect of a mutation on the interaction” value is “decreasing interaction”.

The variants in the next experiment derive from B1. The settings on record: with rasn_rat Nras.
Take H995L: the “effect of a mutation on the interaction” value is recorded as “decreasing interaction”.

For the origin of these results see IntAct's records for PubMed 17380122.
